Experimental data from patent publication US20090291890A1 (published 2009).
“And” between values parts separate entries of the source, which are not always exact repeats. Identical values can stand only once.

What was measured:
[1] = target: wild-type FVIIa (human)
[2] = target: T128N/P129A/A175S/Q286R/M298Q-FVIIa (human)
[3] = target: A122N/G124S-FVIIa (human)
[4] = target: T239V/Q286R/M298Q-FVIIa (human)
[5] = target: Q286R/H373F-FVIIa (human)
[6] = target: T128N/P129A/S222A/H257A/Q286R/M298Q-FVIIa (human)
[7] = target: wild-type FVIIa (human); remark: listed apart in the source
[8] = target: S52A/S60A/S222A/H257A/Q286R/M298Q-FVIIa (human)
[9] = target: Gla swap FIX/S222A/Q286R/M298Q/H373F-FVIIa (human)
[10] = target: A122N/G124S/A175S/Q366V-FVIIa (human)
[11] = target: S119N/L121S/A175S-FVIIa (human)
[12] = target: {Gla swap FIX/K43I}/Q286R/M298Q-FVIIa (human)
[13] = target: T239V/Q286R/H373F-FVIIa (human)
[14] = target: {Gla swap FIX/M19K/E40L/K43I/Q44S}/Q286R/M298Q-FVIIa (human)
[15] = target: T128N/P129A/Q286R/M298Q/Q366N/H373F-FVIIa (human)
[16] = target: S52A/S60A/Q286R-FVIIa (human)
[17] = target: T128N/P129A/Q286R-FVIIa (human)
[18] = target: A122N/G124S/A175S/Q286R/M298Q/H373F-FVIIa (human)
[19] = target: Gla swap FIX/T239V/Q286R/M298Q-FVIIa (human)
[20] = target: {Gla swap FIX/K43I}/T128N/P129A/Q286R/M298Q/Q366N-FVIIa (human)
[21] = target: H257A/Q286R/M298Q-FVIIa (human)
[22] = target: T128N/P129A/Q286R/M298Q/Q366N-FVIIa (human)
[23] = target: T239I/Q286R/M298Q/Q366N-FVIIa (human)
[24] = target: Q286R/M298Q-FVIIa (human)
[25] = target: Q286R-FVIIa (human)
[26] = target: T128N/P129A/T239V/Q286R/M298Q-FVIIa (human)
[27] = target: Q286R/M298Q/Q366N-FVIIa (human)
[28] = target: A122N/G124S/A175S/Q286R-FVIIa (human)
[29] = target: S222A/Q286R/M298Q-FVIIa (human)
[30] = target: T128N/P129A/T239I/Q286R/M298Q-FVIIa (human)
[31] = target: T128N/P129A/Q286R/M298Q/H373F-FVIIa (human)
[32] = target: V158D/Q286R/E296V/M298Q-FVIIa (human)
[33] = target: K109N-FVIIa (human)
[34] = target: M298Q/Q366N/H373F-FVIIa (human)
[35] = target: S52A/S60A-FVIIa (human)
[36] = target: Gla swap FIX/S52A/S60A/Q286R/M298Q-FVIIa (human)
[37] = target: Gla swapFIX/Q366V-FVIIa (human)
[38] = target: T128N/P129A/S222A/T239V/H257A/Q286R/M298Q-FVIIa (human)
[39] = target: T128N/P129A/A175S/Q286R-FVIIa (human)
[40] = target: Gla swap FIX/S222A/Q286R/H373F-FVIIa (human)
[41] = target: T128N/P129A/A175S/Q286R/M298Q/H373F-FVIIa (human)
[42] = target: S222A/Q286R/M298Q/H373F-FVIIa (human)
[43] = target: {Gla swap FIX/K43I}/Q286R/M298Q/Q366N-FVIIa (human)
[44] = target: S222A/H257A/Q286R/M298Q-FVIIa (human)
[45] = target: S222A/T239I/H257A/Q286R/M298Q-FVIIa (human)
[46] = target: A122N/G124S/A175S/S222A-FVIIa (human)
[47] = target: V158D/Q286R/E296V/M298Q/H373F-FVIIa (human)
[48] = target: Gla swap FIX/Q286R/M298Q-FVIIa (human)
[49] = target: S222A/H257A/Q286R-FVIIa (human)
[50] = target: S222A/T239V-FVIIa (human)
[51] = target: T128N/P129A/A175S/S222A-FVIIa (human)
[52] = target: T239V/Q286R/M298Q/Q366N-FVIIa (human)
[53] = target: T128N/P129A/Q286R/M298Q-FVIIa (human)
[54] = target: S222A/T239I-FVIIa (human)
[55] = target: T128N/P129A/S222A-FVIIa (human)
[56] = target: wild-type FVIIa (human); remark: listed apart in the source

Chain of antithrombin III (P01008 33-464): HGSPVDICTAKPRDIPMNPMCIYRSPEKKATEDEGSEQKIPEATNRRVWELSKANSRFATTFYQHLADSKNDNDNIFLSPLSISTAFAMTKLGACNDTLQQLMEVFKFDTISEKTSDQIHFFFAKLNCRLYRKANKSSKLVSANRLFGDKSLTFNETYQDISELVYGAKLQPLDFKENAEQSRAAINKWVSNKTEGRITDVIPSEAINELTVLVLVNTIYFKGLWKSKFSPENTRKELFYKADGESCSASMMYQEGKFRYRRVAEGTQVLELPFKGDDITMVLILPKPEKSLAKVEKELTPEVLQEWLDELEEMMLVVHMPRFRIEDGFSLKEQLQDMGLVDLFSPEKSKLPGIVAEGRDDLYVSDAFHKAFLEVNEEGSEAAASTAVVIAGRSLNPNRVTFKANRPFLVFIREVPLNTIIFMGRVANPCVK

- K0.5, TF-independent, FVIIa from 293-F cells [1]: 2260 nM
- K0.5 mut/K0.5 wt, TF-independent, 293-F cells [1]: 1
- K0.5 mut/K0.5 wt, TF-independent, BHK-21 cells [1]: 1
- K0.5 [2]: 2310 nM
- K0.5 [3]: 372 nM
- K0.5 [4]: 3.63 µM
- K0.5 [5]: 621 nM
- K0.5 [6]: 653 nM and 328 nM
- K0.5 [7]: 394 nM and 503 nM
- K0.5 [8]: 448 nM
- K0.5 [9]: 164 nM
- K0.5 [10]: 336 nM
- K0.5 [11]: 1640 nM
- K0.5 [12]: 244 nM and 219 nM
- K0.5 [13]: 631 nM
- K0.5 [14]: 339 nM
- K0.5 [15]: 148 nM
- K0.5 [16]: 1320 nM
- K0.5 [17]: 1650 nM and 1740 nM
- K0.5 [18]: 1000 nM
- K0.5 [19]: 484 nM and 314 nM
- K0.5 [20]: 319 nM
- K0.5 [21]: 391 nM
- K0.5 [22]: 346 nM
- K0.5 [23]: 813 nM
- K0.5 [24]: 299 nM and 287 nM and 395 nM
- K0.5 [25]: 1090 nM
- K0.5 [26]: 266 nM
- K0.5 [27]: 324 nM
- K0.5 [28]: 6.92 µM
- K0.5 [29]: 308 nM
- K0.5 [30]: 917 nM
- K0.5 [31]: 183 nM
- K0.5 [32]: 85 nM
- K0.5 [33]: 330 nM
- K0.5 [34]: 90.8 nM
- K0.5 [35]: 361 nM
- K0.5 [36]: 254 nM
- K0.5 [37]: 108 nM
- K0.5 [38]: 326 nM
- K0.5 [39]: 9.55 µM
- K0.5 [40]: 587 nM
- K0.5 [41]: 1130 nM
- K0.5 [42]: 163 nM
- K0.5 [43]: 404 nM
- K0.5 [44]: 314 nM
- K0.5 [45]: 1220 nM
- K0.5 [46]: 1550 nM
- K0.5 [47]: 62.1 nM
- K0.5 [48]: 282 nM and 238 nM
- K0.5 [49]: 2590 nM
- K0.5 [50]: 967 nM
- K0.5 [51]: 1910 nM
- K0.5 [52]: 252 nM
- K0.5 [53]: 284 nM
- K0.5 [54]: 1150 nM
- K0.5 [55]: 401 nM
- K0.5, TF-dependent, FVIIa from 293-F cells [56]: 72.3 nM
- K0.5, TF-dependent, FVIIa from BHK-21 cells [56]: 56 nM
- K0.5 mut/K0.5 wt, TF-dependent, 293-F cells [56]: 1
- K0.5 mut/K0.5 wt, TF-dependent, BHK-21 cells [56]: 1
Substance: antithrombin III
